± gives the uncertainty stated by the source.
Assay: protein stability index of a GFP-peptide fusion (yeast GPS) (PSI 1-4); higher = more stable; sorted into four equal gates, so the index is relative within each strain
Procedure, shortened: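 The protein stability index combines read frequencies across sorting gates, each weighted by its gate number and then summed. To obtain those frequencies, a pooled yeast library of GFP fusions to tiled 17-residue yeast protein peptides, on a plasmid also expressing Cherry, was grown to mid-log phase in leucine-free medium. The cells were sorted into four equal gates by GFP/Cherry ratio before plasmid amplification by PCR and Illumina sequencing.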

| Sequence | protein stability index (doa10∆) | protein stability index (pdr5∆) | protein stability index (san1∆) | protein stability index (ubr1∆) |
| --- | --- | --- | --- | --- |
| FPTTSHESLVTTLLRKK [MED8] | 2.12 ± 0.12 | 1.82 ± 0.12 | 1.72 ± 0.14 | 1.95 ± 0.12 |
| YHTNPGHSQFTSHYQNY [RPN4] | 2.82 ± 0.067 | 2.9 ± 0.089 | 3.02 ± 0.079 | 3.04 ± 0.054 |
| GKTYMGWWGHMGGPKQK [QCR8] | 1.88 ± 0.22 | 1.79 ± 0.11 | 1.63 ± 0.19 | 2.4 ± 0.14 |
| HKQIHTTIFVKSTTPYV [POP7] | 2.15 ± 0.045 | 2.31 ± 0.05 | 2.15 ± 0.062 | 1.82 ± 0.03 |
| NSINKTTVPFKESDDPS [POP1] | 2.5 ± 0.067 | 2.93 ± 0.06 | 2.71 ± 0.072 | 2.36 ± 0.065 |
| LKSAIRDEIAKNTELSY [RPN12] | 1.41 ± 0.058 | 2.16 ± 0.1 | 1.51 ± 0.097 | 2.46 ± 0.056 |
| ANRVTDKLTRVHDKIWC [PRE3] | 2 ± 0.12 | 2.42 ± 0.085 | 2.38 ± 0.063 | 2.34 ± 0.095 |
| KEASQEDDNNNVEKPSS [YLR335W/NUP2] | 3.11 ± 0.088 | 3.22 ± 0.071 | 3.06 ± 0.053 | 3.18 ± 0.066 |
| HFAWLPTHIWNAKRSHM [POP1] | 1.99 ± 0.033 | 1.67 ± 0.035 | 1.45 ± 0.059 | 1.5 ± 0.026 |
| TQLDDLQHELMISIIKL [YML103C/NUP188] | – | 2.29 ± 0.1 | 2.19 ± 0.28 | 2.51 ± 0.093 |
| PQDILSKLYLLLARVFE [SNF11] | 2.14 ± 0.044 | 2.37 ± 0.052 | 2.2 ± 0.069 | 2.4 ± 0.041 |
| TLLRLNELLDLTESQTE [RPN5] | 2.39 ± 0.089 | 2.18 ± 0.092 | 2.71 ± 0.11 | 2.74 ± 0.072 |
| LSMRFQRETSGMIVISM [SRB8] | 2.13 ± 0.081 | 2.05 ± 0.062 | 1.54 ± 0.067 | 1.97 ± 0.058 |
| NTLRKCYPQFAERDSQG [UBP6] | 2.92 ± 0.17 | 2.65 ± 0.15 | 2.79 ± 0.15 | 2.78 ± 0.12 |
| EKADYERELISNIEQTE [YIL149C/MLP2] | 3.34 ± 0.079 | 3.48 ± 0.087 | 3.27 ± 0.063 | 3.6 ± 0.098 |
| KLNDSQRKTVNSDDILS [POP1] | 2.3 ± 0.075 | 1.99 ± 0.1 | 2.38 ± 0.087 | 2.89 ± 0.093 |
| KIESLAGGGESDSALIL [UBP6] | 3.25 ± 0.18 | – | 3.49 ± 0.11 | 3.12 ± 0.25 |
| NLEQINEDLEDGHYIEE [REC8] | 2.93 ± 0.088 | – | 2.98 ± 0.16 | 3.2 ± 0.088 |
| SSLASQDVDFYKNLDRG [RRP6] | 1.31 ± 0.084 | 1.37 ± 0.067 | – | 1.64 ± 0.088 |
| FISAARYKPKSHLWEID [RPC37] | 3.02 ± 0.11 | 3.06 ± 0.082 | 2.71 ± 0.067 | 3.11 ± 0.069 |
| AGVQGSKVSKQQAKGAF [RPL24B] | 3.08 ± 0.15 | 3.21 ± 0.11 | 3.19 ± 0.055 | 3.21 ± 0.081 |
| PQENDLESKMSEVGDAF [SMC3] | 2.73 ± 0.2 | 3.36 ± 0.2 | 3.43 ± 0.11 | 2.98 ± 0.22 |
| RVEKIPEIPLVVSTDLE [RPL4A] | – | 2.93 ± 0.3 | – | 2.77 ± 0.22 |
| YGEATSPFGAYGEAPTS [RPO21] | 2.48 ± 0.065 | 2.58 ± 0.049 | 2.9 ± 0.064 | 2.79 ± 0.054 |
| EIQRTMLELLNQLDGFD [RPT2] | 2.83 ± 0.088 | 2.97 ± 0.12 | 2.93 ± 0.067 | – |

| Sequence | protein stability index (doa10∆) | protein stability index (pdr5∆) | protein stability index (san1∆) | protein stability index (ubr1∆) |
| --- | --- | --- | --- | --- |
| AFSFGAKSNEDKQDGTA [YJL041W/NSP1] | 3.24 ± 0.13 | 2.98 ± 0.16 | 3 ± 0.2 | 3.44 ± 0.14 |
| ELENFLDNFETKTEALL [YJL041W/NSP1] | 2.62 ± 0.12 | 2.91 ± 0.14 | 2.72 ± 0.15 | 1.81 ± 0.1 |
| NRIIKADDHASVQINVA [RPS21A] | 2.89 ± 0.055 | 3.05 ± 0.052 | 2.99 ± 0.052 | 3.11 ± 0.039 |
| VMKDIYKVENVTLYWNN [ESC2] | 1.42 ± 0.088 | 1.62 ± 0.08 | 1.47 ± 0.11 | 1.73 ± 0.084 |
| LDLKECYQFAEYLFKPQ [ARP7] | 3.05 ± 0.084 | 3.06 ± 0.08 | 3.03 ± 0.063 | 2.97 ± 0.059 |
| TPESVKPANASHAIRLG [RGR1] | 2.63 ± 0.049 | 2.42 ± 0.037 | 2.98 ± 0.045 | 2.47 ± 0.039 |
| STEEIEYIELEYRDLYT [YMR129W/POM152] | 2.56 ± 0.11 | 3.04 ± 0.14 | 2.94 ± 0.13 | 2.72 ± 0.05 |
| FKKTLRSRISSPHGLIN [SRB4] | 2.09 ± 0.049 | 2.15 ± 0.056 | 2.53 ± 0.065 | 2.15 ± 0.042 |
| QRSNISTAIKSLVALGI [CDC53] | 1.86 ± 0.047 | 2.82 ± 0.054 | 2.82 ± 0.049 | 2.48 ± 0.037 |
| MKESVVEINSSESDLDE [ESC2] | 3.35 ± 0.071 | 3.06 ± 0.086 | 3.06 ± 0.079 | 3.16 ± 0.068 |
| NINFASGVKNDILQSLS [CDC53] | 2.11 ± 0.066 | 2.39 ± 0.045 | 1.65 ± 0.053 | 1.66 ± 0.045 |
| LYKTFFKRNAVFVGTIF [QCR9] | 1.78 ± 0.075 | 1.36 ± 0.051 | 1.39 ± 0.098 | 1.36 ± 0.054 |
| IDRPKHELSRAELEELE [SMD2] | 3.27 ± 0.083 | 3.27 ± 0.15 | 3.32 ± 0.07 | 3.38 ± 0.1 |
| STGCVVGLSQPDAKIQV [YMR129W/POM152] | 2.29 ± 0.15 | 2.47 ± 0.21 | 2.47 ± 0.063 | 2.42 ± 0.091 |
| TKFNHNKEKSNSPTSFF [YOR098C/NUP1] | 2.78 ± 0.069 | 2.85 ± 0.066 | 2.66 ± 0.048 | 2.53 ± 0.051 |
| QQQNASSKLYQMQQQQQ [GAL11] | 1.76 ± 0.091 | 1.66 ± 0.073 | 1.5 ± 0.13 | 1.78 ± 0.064 |
| NLNAFVDFSKYNTNFNL [SRP72] | 3.19 ± 0.12 | 2.81 ± 0.12 | 3.09 ± 0.048 | 2.17 ± 0.08 |
| PITGASLDLIKERRSLK [RPL24A] | 3.04 ± 0.097 | 3.07 ± 0.078 | 3.02 ± 0.067 | 2.98 ± 0.06 |
| IVRDLDRPGSKFHKREV [RPL3] | 3.07 ± 0.14 | 3.44 ± 0.28 | 2.92 ± 0.3 | 3.14 ± 0.16 |
| LSSAGAKSTVETFISSM [RIP1] | 3.08 ± 0.17 | 2.8 ± 0.13 | 2.86 ± 0.072 | 2.69 ± 0.11 |
| GASGEERLMSRPFGVAL [PUP2] | 3.36 ± 0.14 | 3.24 ± 0.079 | 2.93 ± 0.073 | 3.13 ± 0.05 |
| GIIITDQSNVQYYLSVL [BRR2] | 3.32 ± 0.2 | 3.44 ± 0.19 | 3.07 ± 0.11 | 3.01 ± 0.13 |
| MSGLPPPPPGFEEDSDL [PRP8] | 3.19 ± 0.11 | 3.37 ± 0.083 | 3.13 ± 0.075 | 3.31 ± 0.078 |
| MIFETIVDGKLKTEKIF [FAS1] | 1.8 ± 0.07 | 2.21 ± 0.12 | 1.89 ± 0.1 | 2.17 ± 0.08 |

Reference: the supplement of paper PMC9732359
